The values below come from PMC6052347, “Structure and Function of the Campylobacter jejuni Chromosome Replication Origin”.

The target of this data set is T1, 6HisCj1509 (Campylobacter jejuni 81116 (NCTC11828)?, UniProt Q0P820 1-295).
T1 sequence: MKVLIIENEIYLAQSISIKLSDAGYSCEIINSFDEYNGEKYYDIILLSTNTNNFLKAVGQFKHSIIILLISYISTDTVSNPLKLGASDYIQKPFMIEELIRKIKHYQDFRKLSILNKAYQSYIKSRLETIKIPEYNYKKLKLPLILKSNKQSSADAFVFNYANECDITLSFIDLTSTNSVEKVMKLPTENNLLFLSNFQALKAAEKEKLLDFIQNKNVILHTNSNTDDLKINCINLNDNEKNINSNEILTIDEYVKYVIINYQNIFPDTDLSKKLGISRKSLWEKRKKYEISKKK
The data set can be described thus: EMSA; higher affinity than boxes 1 and 3; EMSA: room temperature, 15 min, up to 30 nM DnaA or 400 nM Cj1509, 4% PAGE in 1x TBE; box probes 0.4 uM; binding buffer not given (as in Jaworski 2016); DnaA with 5 mM ATP (footprinting) or 3 mM ATP (EM). The conditions noted are these: protein: recombinant; tags: N-terminal 6xHis (pET28a); chain copies: 2; label: FAM 5' on E7; blunt; three strands, nick between E7 and E10, E11 complementary to E7+E10. On the technique in general: In EMSA bound probe runs differently from free probe, usually more slowly.

B1: Cj1509 box 2 probe (E7-E10-E11) (dsDNA)
DNA 1: GTGCCCTGGTCTGG
DNA 2: TTTGAAGAATGTTACAATTTCAACA
DNA 3: TGTTGAAATTGTAACATTCTTCAAACCAGACCAGGGCAC
Regarding B1, the binding result was “binds”.
